Source: the supplement of paper PMC7125110
± gives the standard error. Fewer inactive variants are shown than the library holds.

B1: glmS ribozyme (parent)
chain: AUAAAAGCGCCAGAACUACAGAAAUGUAGUUGACGAGGAGGAGGUUUAUCGAAUUUUCGGCGGAUGCCUCCAAA

Legend:
Conditions in all cases: with glucosamine-6-phosphate
glucosamine-6-phosphate [1] = variants of: B1; test: self-cleavage kobs at 40 uM GlcN6P; higher = faster cleavage; RNA array
Method in brief: (§1)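 Glucosamine-6-phosphate (40 μM to 10 mM) in HEPES/KCl/Mg(OAc)2 buffer was flowed over sequenced MiSeq chips, and tiles were imaged over ~14 h. Barcoded ribozyme variants there had been transcribed in situ by E. coli RNA polymerase and were tracked through a hybridised Cy3 probe at 37 °C. One- or two-exponential decay fits to per-tile medians, normalised to baseline and to non-cleaving reference variants, gave kobs. kcat and KM came from weighted Michaelis–Menten fits across concentrations.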

glucosamine-6-phosphate [2] = variants of: B1; test: self-cleavage kobs at 640 uM GlcN6P; higher = faster cleavage; RNA array
Method in brief: as §1

glucosamine-6-phosphate [3] = variants of: B1; test: self-cleavage kobs at 2500 uM GlcN6P; higher = faster cleavage; RNA array
Method in brief: as §1

glucosamine-6-phosphate [4] = variants of: B1; test: self-cleavage kobs at 10000 uM GlcN6P; higher = faster cleavage; RNA array
Method in brief: as §1

glucosamine-6-phosphate [5] = variants of: B1; test: self-cleavage kobs at 160 uM GlcN6P; higher = faster cleavage; RNA array
Method in brief: as §1

Row | Variant | self-cleavage kobs at 40 uM GlcN6P (glucosamine-6-phosphate [1]) | self-cleavage kobs at 640 uM GlcN6P (glucosamine-6-phosphate [2]) | self-cleavage kobs at 2500 uM GlcN6P (glucosamine-6-phosphate [3]) | self-cleavage kobs at 10000 uM GlcN6P (glucosamine-6-phosphate [4]) | self-cleavage kobs at 160 uM GlcN6P (glucosamine-6-phosphate [5])
1 | AUAAAAGCGCCAGAACUACAGAAAUGUAGUUGACGGGGAGGAGGUUUAUCGAAUUUUCGGCUGAUGCCUCCAAA [A36G G62U] | < 1e-05 s⁻¹ | < 1e-05 s⁻¹ | < 1e-05 s⁻¹ | < 1e-05 s⁻¹ | 
2 | AUAAAAGCGCCAGAACUACAGAAAUGUAGUUGACGUGGAGGAGGAUUAUCGAAUUUUCGGCGGAUGCCUCGAAA [A36U U45A C71G] | < 1e-05 s⁻¹ |  |  |  | 
3 | AUAAAAGCGCCAGAACUACAGAAAUGUAGUUGACGGGGAGGAGUCUUAUCAAAUUUUCGGCGCAUGCCGGCAAA [A36G G44U U45C G51A G63C U69G C70G] | < 1e-05 s⁻¹ |  |  | < 1e-05 s⁻¹ | 
4 | AUAAAAGCGCCAGAACUACAGAAAUGUAGUUGACGGGGAGGAAGUUUAUCGAAUUUUAGGCCGAUGCGUCCAAA [A36G G43A C58A G62C C68G] | < 1e-05 s⁻¹ |  |  | < 1e-05 s⁻¹ | 
5 | AUAAAAGCGCCAGAACUACAGAAAUGUAGUUGACGGCGAGGAGGUUUAUCGAAUUUUCGGCGGAUGCCUCCAAA [A36G G37C] | < 1e-05 s⁻¹ |  |  | < 1e-05 s⁻¹ | < 1e-05 s⁻¹
6 | AUAAAAGCGCCAGAACUACAGAAAUGUAGUUGACGGGGAGGAGGUUUAUCGAAUUUUCGGCGGGUGCCGCCAAA [A36G A64G U69G] | < 1e-05 s⁻¹ |  |  |  | 
7 | AUAAAAGCGCCAGAACUACAGAAAUGUAGUUGACGGGGAGGAGGUUUAUCGAAUUUUCGGCGGAUGUCUCCAAA [A36G C67U] | < 1e-05 s⁻¹ |  |  |  | 
8 | AUAAAAGCGCCAGAACUACAGAAAUGUAGUUGACGUGGAGGAGGUUUAUCGGAUUUUCGGCGGAUGCCUACAAA [A36U A52G C70A] | 5.42e-05 ± 1.4e-05 s⁻¹ | 0.000171 ± 6.6e-05 s⁻¹ |  |  | 
9 | AUAAAAGCGCCAGAACUACAGAAAUGUAGUUGACGUGGAGGAGAUUUAUCGAAUUUUCGGCGGAUGCCUCCAAA [A36U G44A] | < 1e-05 s⁻¹ | < 1e-05 s⁻¹ | < 1e-05 s⁻¹ | < 1e-05 s⁻¹ | < 1e-05 s⁻¹
10 | AUAAAAGCGCCAGAACUACAGAAAUGUAGUUGACGGGGAGGAGGUUUAUCGAAUUUUCUGCGGAUGCCUCCAAA [A36G G59U] | < 1e-05 s⁻¹ | < 1e-05 s⁻¹ | < 1e-05 s⁻¹ | < 1e-05 s⁻¹ | < 1e-05 s⁻¹
11 | AUAAAAGCGCCAGAACUACAGAAAUGUAGUUGACGGGGAGGAGGUUUAUCGAAUUUUCGACGGAUGCCUCCAAA [A36G G60A] | < 1e-05 s⁻¹ | < 1e-05 s⁻¹ |  |  | < 1e-05 s⁻¹
12 | AUAAAAGCGCCAGAACUACAGAAAUGUAGUUGACGGGGAGGAGGUUUAUCGAAUUGUCGGCGGAUGCCUCCAAA [A36G U56G] | < 1e-05 s⁻¹ | < 1e-05 s⁻¹ |  |  | 
13 | AUAAAAGCGCCAGAACUACAGAAAUGUAGUUGACGGGGAGGAGGUUUAUCGAAUUUUCGGAGGAUGCCUCCAAA [A36G C61A] | < 1e-05 s⁻¹ | < 1e-05 s⁻¹ |  | < 1e-05 s⁻¹ | 
14 | AUAAAAGCGCCAGAACUACAGAAAUGUAGUUGACGUGCAGGAGGUUUAUCGACUUUUCGGCGGAUGCCUCCAAA [A36U G38C A53C] | < 1e-05 s⁻¹ |  |  |  | 
15 | AUAAAAGCGCCAGAACUACAGAAAUGUAGUUGACGUGGAGUAGGUUUAUCGAAUUUUCGGCGGAUGCCUGCAAA [A36U G41U C70G] | < 1e-05 s⁻¹ |  |  |  | 
16 | AUAAAAGCGCCAGAACUACAGAAAUGUAGUUGACGGGGAGGAGGUUUAUCGAACUUUCGGCGGAUGCCUCCAAA [A36G U54C] | < 1e-05 s⁻¹ |  |  |  | < 1e-05 s⁻¹
17 | AUAAAAGCGCCAGAACUACAGAAAUGUAGUUGACGGGGAGGAGGUUUAUCGUAUUUUCGGCGGAUGCCUCCAAA [A36G A52U] | < 1e-05 s⁻¹ | < 1e-05 s⁻¹ | < 1e-05 s⁻¹ | < 1e-05 s⁻¹ | < 1e-05 s⁻¹
18 | AUAAAAGCGCCAGAACUACAGAAAUGUAGUUGACGUGGAGGAGGUUUAUCGAAUUUUCGGCGGAUGUCUGCAAA [A36U C67U C70G] | 7.02e-05 ± 2.8e-05 s⁻¹ |  |  | 3.53e-05 ± 1.7e-05 s⁻¹ | 
19 | AUAAAAGCGCCAGAACUACAGAAAUGUAGUUGACGGGGAGGAGGUUUAUCGAAUUUUCGGCGGAGGCCUCCAAA [A36G U65G] | < 1e-05 s⁻¹ | < 1e-05 s⁻¹ | < 1e-05 s⁻¹ | < 1e-05 s⁻¹ | < 1e-05 s⁻¹
20 | AUAAAAGCGCCAGAACUACAGAAAUGUAGUUGACGGGGAGGAGGUUUAUCGAAUCUUCGGCGGAUGUCUCCAAA [A36G U55C C67U] | < 1e-05 s⁻¹ | < 1e-05 s⁻¹ | < 1e-05 s⁻¹ |  | 
21 | AUAAAAGCGCCAGAACUACAGAAAUGUAGUUGACGGGGAGGAGGUUUAUCGAGUUUUCGGCGGAUGCCUCCAAA [A36G A53G] | < 1e-05 s⁻¹ | < 1e-05 s⁻¹ |  |  | < 1e-05 s⁻¹
22 | AUAAAAGCGCCAGAACUACAGAAAUGUAGUUGACGUGGAGGAGGUUUAUCGAAUUUUCGGCGGAUGCCUGCAAA [A36U C70G] | 3.74e-05 ± 8.5e-06 s⁻¹ | 0.000403 ± 6.8e-05 s⁻¹ |  |  | 2.91e-05 ± 1.4e-05 s⁻¹
23 | AUAAAAGCGCCAGAACUACAGAAAUGUAGUUGACGGGGAGGAGGUUUAUCGAAUUUUCGGCGUAUGCCUCCAAA [A36G G63U] | < 1e-05 s⁻¹ | < 1e-05 s⁻¹ | < 1e-05 s⁻¹ | < 1e-05 s⁻¹ | < 1e-05 s⁻¹
24 | AUAAAAGCGCCAGAACUACAGAAAUGUAGUUGACGGGGAGGAGGUUUAUCGAAUUUUCGGCGAAUGCCUCCAAA [A36G G63A] | < 1e-05 s⁻¹ | < 1e-05 s⁻¹ | < 1e-05 s⁻¹ | < 1e-05 s⁻¹ | < 1e-05 s⁻¹
25 | AUAAAAGCGCCAGAACUACAGAAAUGUAGUUGACGUGGAGGAUGUUUAUUGAAUUUUCGGCGGAUGCCUCCAAA [A36U G43U C50U] | < 1e-05 s⁻¹ |  |  |  | 
26 | AUAAAAGCGCCAGAACUACAGAAAUGUAGUUGACGGGGAGGAGGUUUAUCUAAUUUUCGGCGGAUGCCUCCAAA [A36G G51U] | < 1e-05 s⁻¹ | < 1e-05 s⁻¹ |  | < 1e-05 s⁻¹ | 
27 | AUAAAAGCGCCAGAACUACAGAAAUGUAGUUGACGUGGAGGAGGUUUAUCGAACUUUCGGCGGAUGCCUCCAAA [A36U U54C] | < 1e-05 s⁻¹ | < 1e-05 s⁻¹ |  |  | < 1e-05 s⁻¹
